Source: patent US20180100158A1

Target: HLA-E expressed on the surface of HeLa cells (human (endogenous on HeLa cells)) (UniProt P13747)
Test: cell-based or functional assay

UniProt P13747, sequence (P13747 22-358): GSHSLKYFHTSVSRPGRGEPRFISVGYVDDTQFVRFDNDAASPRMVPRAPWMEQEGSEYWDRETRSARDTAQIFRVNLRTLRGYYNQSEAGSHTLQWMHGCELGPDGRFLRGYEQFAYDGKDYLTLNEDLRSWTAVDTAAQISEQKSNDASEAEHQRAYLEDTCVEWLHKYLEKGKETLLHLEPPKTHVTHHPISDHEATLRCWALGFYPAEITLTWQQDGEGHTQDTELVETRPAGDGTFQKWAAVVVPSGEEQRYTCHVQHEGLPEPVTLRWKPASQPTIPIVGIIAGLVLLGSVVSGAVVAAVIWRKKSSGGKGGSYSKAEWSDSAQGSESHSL

NKG2A receptor on the surface of NK-92 cells (from UniProt P26715 1-233)
percentage of lysis of the target HeLa cells (Calcein release), NKG2A-KO against wild-type NK-92 effector cells (% more target HeLa cells killed): 10 to 15
